In patent US20230242577A1 (UBIPROTEIN, published 2023):

The binders below were run against T1, HA-ubiquitin (from pMT123-HA-ubiquitin) (UniProt P0CG47 1-76) (assay: anti-myc IP, anti-HA blot, HEK 293T co-transfected with HA-ubiquitin (ubiquitination)).
T1 construct: one ubiquitin unit is residues 1-76; not shown: HA tag of pMT123-HA-ubiquitin

Row | Binder | binding result
1 | pcDNA3-myc-β-trophin WT (ligand, also called human β-trophin; not shown: myc tag of the pcDNA3-myc vector) APMGGPELAQHEELTLLFHGTLQLGQALNGVYRTTEGRLTKARNSLGLYGRTIELLGQEVSRGRDAAQELRASLLETQMEEDILQLQAEATAEVLGEVAQAQKVLRDSVQRLEVQLRSAWLGPAYREFEVLKAHADKQSHILWALTGHVQRQRREMVAQQHRLRQIQERLHTAALPA | binds
2 | pCMV3-C-myc-VEGFA WT (ligand, also called vascular endothelial growth factor A; human VEGFA; not shown: myc tag of the pCMV3-C-myc vector) APMAEGGGQNHHEVVKFMDVYQRSYCHPIETLVDIFQEYPDEIEYIFKPSCVPLMRCGGCCNDEGLECVPTEESNITMQIMRIKPHQGQHIGEMSFLQHNKCECRPKKDRARQEKKSVRGKGKGQKRKRKKSRPCGPCSERRKHLFVQDPQTCKCSCKNTDSRCKARQLELNERTCRCDKPRR | binds
3 | pCMV3-C-myc-prepro-GHRL WT (ligand, also called Ghrelin/obestatin preprohormone; appetite stimulating hormone precursor; not shown: myc tag of the pCMV3-C-myc vector) GSSFLSPEHQRVQQRKESKKPPAKLQPRALAGWLRPEDGGQAEGAEDEMEVRFNAPFDVGIKLSGVQYQQHSQALGKFLQDILWEEAKEAPADK | binds
4 | HAEGTFTSDVSSYLEGQAAKEFIAWLVKGRG (ligand, also called glucagon-like peptide-1; human GLP-1; not shown: myc tag of the pcDNA3-myc vector) [pcDNA3-myc-GLP-1 WT] | binds
5 | pcDNA3-myc-G-CSF WT (ligand, also called human G-CSF; not shown: myc tag of the pcDNA3-myc vector) TPLGPASSLPQSFLLKCLEQVRKIQGDGAALQEKLVSECATYKLCHPEELVLLGHSLGIPWAPLSSCPSQALQLAGCLSQLHSGLFLYQGLLQALEGISPELGPTLDTLQLDVADFATTIWQQMEELGMAPALQPTQGAMPAFASAFQRRAGGVLVASHLQSFLEVSYRVLRHLAQP | binds
6 | pcDNA3-myc-interferon-β WT (ligand, also called IFN-β; human interferon-β; not shown: myc tag of the pcDNA3-myc vector) MSYNLLGFLQRSSNFQCQKLLWQLNGRLEYCLKDRMNFDIPEEIKQLQQFQKEDAALTIYEMLQNIFAIFRQDSSSTGWNETIVENLLANVYHQINHLKTVLEEKLEKEDFTRGKLMSSLHLKRYYGRILHYLKAKEYSHCAWTIVRVEILRNFYFINRLTGYLRN | binds
